Literature values in publication PMC8506081.

Assays:
[1] = molecular target: PSD-95 PDZ2 (Homo sapiens) (UniProt P78352)
PSD-95 (Homo sapiens) = PSD-95 (Homo sapiens) (UniProt P78352)
Chain of PSD-95 (Homo sapiens) (P78352 whole entry): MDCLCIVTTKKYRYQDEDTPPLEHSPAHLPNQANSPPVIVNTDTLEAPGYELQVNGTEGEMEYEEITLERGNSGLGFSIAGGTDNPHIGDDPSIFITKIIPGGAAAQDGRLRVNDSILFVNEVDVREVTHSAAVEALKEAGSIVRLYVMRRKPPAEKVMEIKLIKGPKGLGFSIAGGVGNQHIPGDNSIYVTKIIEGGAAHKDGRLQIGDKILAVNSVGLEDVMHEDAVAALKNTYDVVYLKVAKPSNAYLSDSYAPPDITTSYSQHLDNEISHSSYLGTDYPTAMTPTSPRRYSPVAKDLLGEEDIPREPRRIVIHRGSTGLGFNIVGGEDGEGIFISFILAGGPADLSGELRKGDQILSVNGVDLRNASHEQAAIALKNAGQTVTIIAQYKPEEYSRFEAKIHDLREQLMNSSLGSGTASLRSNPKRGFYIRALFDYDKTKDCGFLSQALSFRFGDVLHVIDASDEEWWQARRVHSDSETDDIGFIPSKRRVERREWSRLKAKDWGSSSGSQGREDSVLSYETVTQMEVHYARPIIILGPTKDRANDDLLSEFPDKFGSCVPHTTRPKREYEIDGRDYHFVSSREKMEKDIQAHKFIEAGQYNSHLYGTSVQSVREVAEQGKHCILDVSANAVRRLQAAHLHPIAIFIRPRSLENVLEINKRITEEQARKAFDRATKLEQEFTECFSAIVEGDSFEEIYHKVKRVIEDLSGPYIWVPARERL

Chain of PSD-95 PDZ2 (Homo sapiens) (P78352 157-249): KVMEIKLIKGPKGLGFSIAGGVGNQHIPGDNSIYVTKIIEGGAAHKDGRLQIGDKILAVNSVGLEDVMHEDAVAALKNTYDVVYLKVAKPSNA

| Ki (PSD-95 (Homo sapiens)) | Substance | Ki [1] |
| --- | --- | --- |
| – | NA-1 | 4400 nM |
| 10 nM | AVLX-125 | – |
